Consider six molecules from patent US20160272693A1 (ZEALAND PHARMA A S, published 2016).

*1 amine or outer side, *2 acyl side, *3 side chain or, on linkers, in order; H or OH if unused. Bridges are numbered along the chain shown (N, C = ends). [ ]: non-standard residue; d: D form. The star is where a group is joined. C20 diacid = O=C(O)CCCCCCCCCCCCCCCCCCC(=O)*; γGlu = O=C(O)[C@H](CCC(=O)[*:2])N[*:1]; NMeI = CC[C@H](C)[C@H](NC)C(=O)O; Sar = CNCC(=O)O

This assay addresses T1, human amylin receptor 3 (hAMYR3), hCTR2 co-expressed with human receptor activity modifying protein 3 (hRAMP3) (human, UniProt P30988 25-474; O60896 24-148).
T1 sequence (looked up) 1: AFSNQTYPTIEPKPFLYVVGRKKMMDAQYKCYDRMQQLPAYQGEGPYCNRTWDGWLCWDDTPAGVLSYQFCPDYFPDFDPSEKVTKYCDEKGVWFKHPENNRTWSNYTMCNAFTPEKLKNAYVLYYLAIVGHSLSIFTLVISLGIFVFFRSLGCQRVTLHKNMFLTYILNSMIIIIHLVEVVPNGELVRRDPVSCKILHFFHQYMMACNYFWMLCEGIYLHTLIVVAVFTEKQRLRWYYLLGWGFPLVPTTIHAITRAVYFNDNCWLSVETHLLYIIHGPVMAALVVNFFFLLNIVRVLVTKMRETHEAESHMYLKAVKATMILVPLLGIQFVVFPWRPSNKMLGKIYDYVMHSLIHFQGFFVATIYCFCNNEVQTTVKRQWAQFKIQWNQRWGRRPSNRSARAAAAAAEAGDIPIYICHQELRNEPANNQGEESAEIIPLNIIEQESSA
T1 sequence (looked up) 2: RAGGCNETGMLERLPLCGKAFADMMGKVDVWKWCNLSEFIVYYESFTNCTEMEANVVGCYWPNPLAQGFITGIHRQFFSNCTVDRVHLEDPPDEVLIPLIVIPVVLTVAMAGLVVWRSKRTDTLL
Nature of the assay: cell-based or functional assay.

B1: [19CD]-isoGlu-R-C( )-NTAT-C( )-ATQRLAHFLHRVSF-Gly(Me)-A-Ile(Me)-LSSTEVGSETP-NH2 (Compd. 21) (peptide)
peptide: {C20 diacid-γGlu}-RCNTATCATQRLAHFLHRVSF[Sar]A[NMeI]LSSTEVGSETP-NH2
modifications: disulfide 2-7
SMILES: CC[C@H](C)[C@@H](C(=O)N[C@@H](CC(C)C)C(=O)N[C@@H](CO)C(=O)N[C@@H](CO)C(=O)N[C@H](C(=O)N[C@@H](CCC(=O)O)C(=O)N[C@H](C(=O)NCC(=O)N[C@@H](CO)C(=O)N[C@@H](CCC(=O)O)C(=O)N[C@H](C(=O)N1CCC[C@H]1C(N)=O)[C@@H](C)O)C(C)C)[C@@H](C)O)N(C)C(=O)[C@H](C)NC(=O)CN(C)C(=O)[C@H](Cc1ccccc1)NC(=O)[C@H](CO)NC(=O)[C@@H](NC(=O)[C@H](CCCNC(=N)N)NC(=O)[C@H](Cc1c[nH]cn1)NC(=O)[C@H](CC(C)C)NC(=O)[C@H](Cc1ccccc1)NC(=O)[C@H](Cc1c[nH]cn1)NC(=O)[C@H](C)NC(=O)[C@H](CC(C)C)NC(=O)[C@H](CCCNC(=N)N)NC(=O)[C@H](CCC(N)=O)NC(=O)[C@@H](NC(=O)[C@H](C)NC(=O)[C@@H]1CSSC[C@H](NC(=O)[C@H](CCCNC(=N)N)NC(=O)CC[C@H](NC(=O)CCCCCCCCCCCCCCCCCCC(=O)O)C(=O)O)C(=O)N[C@@H](CC(N)=O)C(=O)N[C@@H]([C@@H](C)O)C(=O)N[C@@H](C)C(=O)N[C@@H]([C@@H](C)O)C(=O)N1)[C@@H](C)O)C(C)C
As for B1, the “hAMYR3 EC50 (nM); cAMP induction” value worked out at 0.23 nM.

B2: [19CD]-isoGlu-R-C( )-PTAT-C( )-ATDRLAHFLVRSSF-Gly(Me)-A-Ile(Me)-LSSTDVGSDTP-NH2 (Compd. 23) (peptide)
peptide: {C20 diacid}-[γGlu]RCPTATCATDRLAHFLVRSSF[Sar]A[NMeI]LSSTDVGSDTP-NH2
modifications: disulfide 3-8
SMILES: CC[C@H](C)[C@@H](C(=O)N[C@@H](CC(C)C)C(=O)N[C@@H](CO)C(=O)N[C@@H](CO)C(=O)N[C@H](C(=O)N[C@@H](CC(=O)O)C(=O)N[C@H](C(=O)NCC(=O)N[C@@H](CO)C(=O)N[C@@H](CC(=O)O)C(=O)N[C@H](C(=O)N1CCC[C@H]1C(N)=O)[C@@H](C)O)C(C)C)[C@@H](C)O)N(C)C(=O)[C@H](C)NC(=O)CN(C)C(=O)[C@H](Cc1ccccc1)NC(=O)[C@H](CO)NC(=O)[C@H](CO)NC(=O)[C@H](CCCNC(=N)N)NC(=O)[C@@H](NC(=O)[C@H](CC(C)C)NC(=O)[C@H](Cc1ccccc1)NC(=O)[C@H](Cc1c[nH]cn1)NC(=O)[C@H](C)NC(=O)[C@H](CC(C)C)NC(=O)[C@H](CCCNC(=N)N)NC(=O)[C@H](CC(=O)O)NC(=O)[C@@H](NC(=O)[C@H](C)NC(=O)[C@@H]1CSSC[C@H](NC(=O)[C@H](CCCNC(=N)N)NC(=O)CC[C@H](NC(=O)CCCCCCCCCCCCCCCCCCC(=O)O)C(=O)O)C(=O)N2CCC[C@H]2C(=O)N[C@@H]([C@@H](C)O)C(=O)N[C@@H](C)C(=O)N[C@@H]([C@@H](C)O)C(=O)N1)[C@@H](C)O)C(C)C
For B2, the “hAMYR3 EC50 (nM); cAMP induction” value turned out to be 0.13 nM.

B3: [19CD]-isoGlu-R-C( )-PTAT-C( )-ATDRLAHFLHRSSF-Gly(Me)-A-Ile(Me)-LSSTDVGSNTP-NH2 (Compd. 25) (peptide)
peptide: {C20 diacid}-[γGlu]RCPTATCATDRLAHFLHRSSF[Sar]A[NMeI]LSSTDVGSNTP-NH2
modifications: disulfide 3-8
SMILES: CC[C@H](C)[C@@H](C(=O)N[C@@H](CC(C)C)C(=O)N[C@@H](CO)C(=O)N[C@@H](CO)C(=O)N[C@H](C(=O)N[C@@H](CC(=O)O)C(=O)N[C@H](C(=O)NCC(=O)N[C@@H](CO)C(=O)N[C@@H](CC(N)=O)C(=O)N[C@H](C(=O)N1CCC[C@H]1C(N)=O)[C@@H](C)O)C(C)C)[C@@H](C)O)N(C)C(=O)[C@H](C)NC(=O)CN(C)C(=O)[C@H](Cc1ccccc1)NC(=O)[C@H](CO)NC(=O)[C@H](CO)NC(=O)[C@H](CCCNC(=N)N)NC(=O)[C@H](Cc1c[nH]cn1)NC(=O)[C@H](CC(C)C)NC(=O)[C@H](Cc1ccccc1)NC(=O)[C@H](Cc1c[nH]cn1)NC(=O)[C@H](C)NC(=O)[C@H](CC(C)C)NC(=O)[C@H](CCCNC(=N)N)NC(=O)[C@H](CC(=O)O)NC(=O)[C@@H](NC(=O)[C@H](C)NC(=O)[C@@H]1CSSC[C@H](NC(=O)[C@H](CCCNC(=N)N)NC(=O)CC[C@H](NC(=O)CCCCCCCCCCCCCCCCCCC(=O)O)C(=O)O)C(=O)N2CCC[C@H]2C(=O)N[C@@H]([C@@H](C)O)C(=O)N[C@@H](C)C(=O)N[C@@H]([C@@H](C)O)C(=O)N1)[C@@H](C)O
With B3, the “hAMYR3 EC50 (nM); cAMP induction” value was 0.094 nM.

B4: [19CD]-isoGlu-R-C( )-NTAT-C( )-ATQRLAHFLHRSVF-Gly(Me)-A-Ile(Me)-LSSTEVGSETP-NH2 (Compd. 20) (peptide)
peptide: {C20 diacid-γGlu}-RCNTATCATQRLAHFLHRSVF[Sar]A[NMeI]LSSTEVGSETP-NH2
modifications: disulfide 2-7
SMILES: CC[C@H](C)[C@@H](C(=O)N[C@@H](CC(C)C)C(=O)N[C@@H](CO)C(=O)N[C@@H](CO)C(=O)N[C@H](C(=O)N[C@@H](CCC(=O)O)C(=O)N[C@H](C(=O)NCC(=O)N[C@@H](CO)C(=O)N[C@@H](CCC(=O)O)C(=O)N[C@H](C(=O)N1CCC[C@H]1C(N)=O)[C@@H](C)O)C(C)C)[C@@H](C)O)N(C)C(=O)[C@H](C)NC(=O)CN(C)C(=O)[C@H](Cc1ccccc1)NC(=O)[C@@H](NC(=O)[C@H](CO)NC(=O)[C@H](CCCNC(=N)N)NC(=O)[C@H](Cc1c[nH]cn1)NC(=O)[C@H](CC(C)C)NC(=O)[C@H](Cc1ccccc1)NC(=O)[C@H](Cc1c[nH]cn1)NC(=O)[C@H](C)NC(=O)[C@H](CC(C)C)NC(=O)[C@H](CCCNC(=N)N)NC(=O)[C@H](CCC(N)=O)NC(=O)[C@@H](NC(=O)[C@H](C)NC(=O)[C@@H]1CSSC[C@H](NC(=O)[C@H](CCCNC(=N)N)NC(=O)CC[C@H](NC(=O)CCCCCCCCCCCCCCCCCCC(=O)O)C(=O)O)C(=O)N[C@@H](CC(N)=O)C(=O)N[C@@H]([C@@H](C)O)C(=O)N[C@@H](C)C(=O)N[C@@H]([C@@H](C)O)C(=O)N1)[C@@H](C)O)C(C)C
On to B4, for which the “hAMYR3 EC50 (nM); cAMP induction” value came out at 0.33 nM.

B5: [19CD]-isoGlu-R-C( )-GTAT-C( )-ATERLAHFLVRSSF-Gly(Me)-A-Ile(Me)-LSSTEVGSETP-NH2 (Compd. 22) (peptide)
peptide: {C20 diacid}-[γGlu]RCGTATCATERLAHFLVRSSF[Sar]A[NMeI]LSSTEVGSETP-NH2
modifications: disulfide 3-8
SMILES: CC[C@H](C)[C@@H](C(=O)N[C@@H](CC(C)C)C(=O)N[C@@H](CO)C(=O)N[C@@H](CO)C(=O)N[C@H](C(=O)N[C@@H](CCC(=O)O)C(=O)N[C@H](C(=O)NCC(=O)N[C@@H](CO)C(=O)N[C@@H](CCC(=O)O)C(=O)N[C@H](C(=O)N1CCC[C@H]1C(N)=O)[C@@H](C)O)C(C)C)[C@@H](C)O)N(C)C(=O)[C@H](C)NC(=O)CN(C)C(=O)[C@H](Cc1ccccc1)NC(=O)[C@H](CO)NC(=O)[C@H](CO)NC(=O)[C@H](CCCNC(=N)N)NC(=O)[C@@H](NC(=O)[C@H](CC(C)C)NC(=O)[C@H](Cc1ccccc1)NC(=O)[C@H](Cc1c[nH]cn1)NC(=O)[C@H](C)NC(=O)[C@H](CC(C)C)NC(=O)[C@H](CCCNC(=N)N)NC(=O)[C@H](CCC(=O)O)NC(=O)[C@@H](NC(=O)[C@H](C)NC(=O)[C@@H]1CSSC[C@H](NC(=O)[C@H](CCCNC(=N)N)NC(=O)CC[C@H](NC(=O)CCCCCCCCCCCCCCCCCCC(=O)O)C(=O)O)C(=O)NCC(=O)N[C@@H]([C@@H](C)O)C(=O)N[C@@H](C)C(=O)N[C@@H]([C@@H](C)O)C(=O)N1)[C@@H](C)O)C(C)C
As to B5, the “hAMYR3 EC50 (nM); cAMP induction” value is 0.59 nM.

B6: [19CD]-isoGlu-R-C( )-NTAT-C( )-ATQRLAHFLVRSSF-Gly(Me)-A-Ile(Me)-LSSTEVGSETP-NH2 (Compd. 24) (peptide)
peptide: {C20 diacid}-[γGlu]RCNTATCATQRLAHFLVRSSF[Sar]A[NMeI]LSSTEVGSETP-NH2
modifications: disulfide 3-8
SMILES: CC[C@H](C)[C@@H](C(=O)N[C@@H](CC(C)C)C(=O)N[C@@H](CO)C(=O)N[C@@H](CO)C(=O)N[C@H](C(=O)N[C@@H](CCC(=O)O)C(=O)N[C@H](C(=O)NCC(=O)N[C@@H](CO)C(=O)N[C@@H](CCC(=O)O)C(=O)N[C@H](C(=O)N1CCC[C@H]1C(N)=O)[C@@H](C)O)C(C)C)[C@@H](C)O)N(C)C(=O)[C@H](C)NC(=O)CN(C)C(=O)[C@H](Cc1ccccc1)NC(=O)[C@H](CO)NC(=O)[C@H](CO)NC(=O)[C@H](CCCNC(=N)N)NC(=O)[C@@H](NC(=O)[C@H](CC(C)C)NC(=O)[C@H](Cc1ccccc1)NC(=O)[C@H](Cc1c[nH]cn1)NC(=O)[C@H](C)NC(=O)[C@H](CC(C)C)NC(=O)[C@H](CCCNC(=N)N)NC(=O)[C@H](CCC(N)=O)NC(=O)[C@@H](NC(=O)[C@H](C)NC(=O)[C@@H]1CSSC[C@H](NC(=O)[C@H](CCCNC(=N)N)NC(=O)CC[C@H](NC(=O)CCCCCCCCCCCCCCCCCCC(=O)O)C(=O)O)C(=O)N[C@@H](CC(N)=O)C(=O)N[C@@H]([C@@H](C)O)C(=O)N[C@@H](C)C(=O)N[C@@H]([C@@H](C)O)C(=O)N1)[C@@H](C)O)C(C)C
As to B6, the “hAMYR3 EC50 (nM); cAMP induction” value stood at 0.19 nM.
